Earlier results on one substance are cited in paper PMC5472698.

The target in the series is CD21 (Homo sapiens) (UniProt P20023).
Chain of CD21 (Homo sapiens) (P20023 21-1033): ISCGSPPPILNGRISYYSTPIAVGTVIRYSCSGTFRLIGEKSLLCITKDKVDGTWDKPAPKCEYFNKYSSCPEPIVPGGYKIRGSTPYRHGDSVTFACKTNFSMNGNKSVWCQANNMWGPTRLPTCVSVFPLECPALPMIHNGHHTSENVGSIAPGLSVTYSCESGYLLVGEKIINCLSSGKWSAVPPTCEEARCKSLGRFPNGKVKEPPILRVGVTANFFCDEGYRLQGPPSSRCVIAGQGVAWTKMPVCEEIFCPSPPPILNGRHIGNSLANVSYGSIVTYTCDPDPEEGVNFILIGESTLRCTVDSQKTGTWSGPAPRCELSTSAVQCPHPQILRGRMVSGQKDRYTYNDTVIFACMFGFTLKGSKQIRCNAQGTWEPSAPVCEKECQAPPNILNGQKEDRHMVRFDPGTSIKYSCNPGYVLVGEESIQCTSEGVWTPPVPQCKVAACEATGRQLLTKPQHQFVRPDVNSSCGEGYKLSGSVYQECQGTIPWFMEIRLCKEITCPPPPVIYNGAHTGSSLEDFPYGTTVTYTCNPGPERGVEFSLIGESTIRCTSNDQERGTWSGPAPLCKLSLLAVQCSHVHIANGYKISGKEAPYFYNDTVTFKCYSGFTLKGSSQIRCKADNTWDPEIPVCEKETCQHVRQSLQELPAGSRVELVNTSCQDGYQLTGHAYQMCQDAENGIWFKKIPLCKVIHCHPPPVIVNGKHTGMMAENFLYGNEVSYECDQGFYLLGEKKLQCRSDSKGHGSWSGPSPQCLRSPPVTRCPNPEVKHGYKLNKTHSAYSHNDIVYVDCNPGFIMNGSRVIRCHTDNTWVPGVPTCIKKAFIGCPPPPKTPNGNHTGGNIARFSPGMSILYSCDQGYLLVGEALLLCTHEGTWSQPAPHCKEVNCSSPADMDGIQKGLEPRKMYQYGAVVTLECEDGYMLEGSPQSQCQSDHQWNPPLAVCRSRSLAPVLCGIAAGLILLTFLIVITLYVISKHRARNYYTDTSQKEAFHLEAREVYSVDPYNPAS

Chain of gp350/220 (P03200 whole entry): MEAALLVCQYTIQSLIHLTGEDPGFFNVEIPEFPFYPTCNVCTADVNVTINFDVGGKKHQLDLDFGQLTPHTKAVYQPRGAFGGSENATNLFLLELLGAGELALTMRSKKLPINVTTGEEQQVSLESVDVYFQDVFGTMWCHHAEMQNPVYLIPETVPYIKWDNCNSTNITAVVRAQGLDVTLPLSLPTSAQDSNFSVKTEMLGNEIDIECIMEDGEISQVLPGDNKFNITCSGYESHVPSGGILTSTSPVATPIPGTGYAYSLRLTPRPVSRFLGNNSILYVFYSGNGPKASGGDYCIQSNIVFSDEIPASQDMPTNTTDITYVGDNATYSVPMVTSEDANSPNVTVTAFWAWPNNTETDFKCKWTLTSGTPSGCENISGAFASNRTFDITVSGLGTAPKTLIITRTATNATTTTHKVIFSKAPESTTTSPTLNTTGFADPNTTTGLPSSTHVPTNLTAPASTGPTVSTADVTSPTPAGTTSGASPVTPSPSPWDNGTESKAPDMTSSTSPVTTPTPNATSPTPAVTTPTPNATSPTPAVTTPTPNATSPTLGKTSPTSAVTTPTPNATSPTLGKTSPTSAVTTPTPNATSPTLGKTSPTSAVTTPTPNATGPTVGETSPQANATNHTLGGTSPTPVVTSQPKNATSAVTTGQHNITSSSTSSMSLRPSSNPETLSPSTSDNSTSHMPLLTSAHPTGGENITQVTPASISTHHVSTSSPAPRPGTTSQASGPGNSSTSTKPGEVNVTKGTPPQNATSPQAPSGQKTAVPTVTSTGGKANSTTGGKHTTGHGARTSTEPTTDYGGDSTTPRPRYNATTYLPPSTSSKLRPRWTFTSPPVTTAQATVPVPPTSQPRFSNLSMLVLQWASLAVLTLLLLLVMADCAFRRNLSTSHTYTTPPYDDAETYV

For gp350/220 (from UniProt P03200), the Kd – broadly, the constant that tells how readily two partners part at equilibrium – is 12 nM.
